Experimental findings from publication PMC7341804 are described below.

The stoichiometry N is the number of molecules, sites or subunits per partner or assembly.

This assay addresses Arabinosyltransferase B (EmbB) from Mycobacterium smegmatis (Mycobacterium smegmatis) (UniProt Q50395). The assay can be described thus: native MS; EmbB in 0.2 M ammonium acetate pH 6.8 with 0.01% C12E8 detergent; Q-Exactive HF Orbitrap UHMR, HCD 150 V, capillary 300 °C.

Substance “Arabinosyltransferase B (EmbB) from Mycobacterium smegmatis (from UniProt Q50395 1-1082) (enzyme)” registered a stoichiometry N of 2.
